Assay results from a protein production outcome set (Wang et al. 2014).

Assay: label from the status in PepcDB records

Sequence	protein production
MDFQHRPGGKTGSGGVASSSESNRDRRERLRQLALETIDINKDPYFMKNHLGSYECKLCLTLHNNEGSYLAHTQGKKHQTNLARRAAKEAKEAPAQPAPEKVKVEVKKFVKIGRPGYKVTKQRDSEMGQQSLLFQIDYPEIAEGIMPRHRFMSAYEQRIEPPDRRWQYLLMAAEPYETIAFKVPSREIDKAEGKFWTHWNRETKQFFLQFHFKMEKPPAPPSLPAGPPGVKRPPPPLMNGLPPRPPLPESLPPPPPGGLPLPPMPPTGPAPSGPPGPPQLPPPAPGVHPPAPVVHPPASGVHPPAPGVHPPAPGVHPPAPGVHPPTSGVHPPAPGVHPPAPGVHPPAPGVHPPAPGVHPPAPGVHPPPSAGVHPQAPGVHPAAPAVHPQAPGVHPPAPGMHPQAPGVHPQPPGVHPSAPGVHPQPPGVHPSNPGVHPPTPMPPMLRPPLPSEGPGNIPPPPPTN	failed
MFKKWLTWPVFYELTEIYTAPLNIMWFVLGSAIAQYHLGTVNWLNVTLCLVSVFIFDLAVNVSDNYYDYRHARDREGYAQKTNPIGRLQLPVAGVGRLALGLYLISLIPGIWLVMRTGWLVLVLGLVGYVIGIFYTAGPYPINATPLCETVVALAIAFLIELTCVVVSTYGQHPLTWSIVGTTFLLCLPLTLIFFCLQLANNTADRDEDILNHRYTLAYYLGKPGSVRLIQAFLVIGGIWPLVNVLLGLAPVVTIWVVLLLPIMWQGMRPFFEVQDKKKTFITTVKSASLFFILYPVLFVLGTWL	failed
MAKTLGLHILADLYGVDADKIDRVEDIRELLEGAVKYANLTKISSHYYQFQPHGATGVVLLAESHISIHTWPEHGLATVDVYTCGDPSKAYRAMDYIITQLNPKRIDKQVHERGIVEEESNQSEAEKLRSILLQV	not failed
MDDWRRFAQQMASLARDLLSQESLHDTLDRITASATELVEDCDAAGILILRGTKVQSLAPTEQVVIDSDALQGRVGEGPCFDAARSGTGERQFRIADFTDEAQRWPKYVPEARKLNLGSMMGFLLFTEDEDLGALNMYSYRPGAFTEADETAGWLLASHAAVAFSSARTHAQMQEAIGTRHIIGEAMGILMGRHRMSEDQAFAALRRYSQDHNVKLRNVAAQVCERGGLPEPTDKR	failed
MLNADVKETIHYVDENGKELAGTYTKDVHYTRTATVHYDQNGNATVTYGEWKADGSFDKVANPDIDGYFTLDKGVDGKTVTDPQNQADFVENVIYYKTDQNVTPLEHHHHHH	not failed
METIKIGVVGLGTVGTGVVKMLQAHQEKISEITGRKLELACVVVHNLKKHEQVDLGDVQMTDQIATLLDDPSIQIMVEVMGSIHPAKEYITQALQAGKHVVTANKDLIAQYGRELVQIARENHRDLFYEASVAGGIPILRTIDNSFAADRIQRVMGIVNGTTNYIMTQMLTKHWSYDQALSSAQDLGFAESDPTNDVEGLDAAFKMIILTQFAFGMSLSLDHVQVQGITKISPEDIAEAHQLGYTIKLLGIAEEIDDRIAVSVGPVLVSDQHPLATVQNENNAVMVTGTAVGNTMFYGPGAGELPTANSVLSDITTVAKNIALNTTGNTFNSYRQETVLATPEDVVYPHFIALKMRDVPGMMMKLTAIMTRAEVSFSRIIQNQLGDGNARVVIITHAMNDQQLADITREIGEQENMQLLASYKVLKNA	failed
MRYAVVLYPCSSFHHESVRPSRFPAPRRHPLLHRLPLAVARRLAGPGTADHFRERAGRGGAASRQRRRVPRRGRRRAAVGPQGGRRLSRAENPQAAAARPHRAGQGAGAQRPSLSAAMNAPQRKIIHVDCDCFYAAIEMRDDPSLRDVPLAVGGRPETRGVVATCNYIARRYGVHSAMSSARALRLCPELLIVPPDMARYRLASQQIMAIYQRYTEVIEPLSLDEAYLDVTGQPHERGSATLMAEAIRRQIRDEVGITASAGIAPNKFLAKVASDWNKPDGQYLIRPRDIDAFVAVLPVEKIHGVGRVTAERLHRLGIRSCGDLRRWSPADLFRHFGSFGERLLALAHGRDERPVSTDRSRKTISVEETYAQDLPDLASCLSKLPELVDRLQARLARSGSPAFKGLSVKLKFDDFSQTTVEQPGYALSMAAFGQLLRAGHARGARPARLLGVGVKLADDFDLPRQLRLFGRDGRPLPDSAPPAEAPPGGPEADSAA	failed
MEAEKKKLSIPPKGIRAIIEAIRLGEIIKPSQYAKREAFKKHDVEEAWLNRVLTMIFYDIMKKQGLIDKVIKEIVGVTPLILDPWLRAALRVAVDIALFHDPSSQTIKNLRWKASDFISSRTHPYVGMYFWDLLDKIFEYKPNPKNELEELEWKYLAPSWLIERVKGILGDETEDFFRSVNKRHEWISIRVNTLKANVEEVIGELEEDGVEVVRSERVPTILKIKGPYNFDTSSAFNEGKIIVQEEASAVASIVLDPKPGETVVDLAAAPGGKTTHLAELMKNKGKIYAFDVDKMRMKRLKDFVKRMGIKIVKPLVKDARKAPEIIGEEVADKVLLDAPCTSSGTIGKNPELRWRLREDKINEMSQLQRELLESAARLVKPGGRLLYTTCSIFKEENEKNIRWFLNVHPEFKLVPLKSPYDPGFLEGTMRAWPHRHSTIGFFYALLEKSK	not failed
MVIQEGFSFGNFIIDVFSIFLFILWFWLLITISGDLFRRHDVSGFAKVLWVIFLIVLPYIGVFAYILTQGRGMAERNQERAREARNELRQVVGFSVADELEKLDRLKASGSISEDEFKRLRAKLVE	failed
MNLLPGFAYIEMESISNLTPLVMKTLAGFIAGIPKAELHLHIEGTLEPEMMLALGERNGVPLPYPDADAAKSAYHFSDLQSFLDIYYRATAVLVTEQDFYDLTIAYLQKAVSRKVCHAEIFFDPQSHIARGVPFETVVGGIGQALSDANGGLGISTKLIMCILRHLSEEDGNAVLEQAVRWKRWISGIGLDSSEKGNPPGKFRELFAKARHYGFFTVAHAGEEGNASSISEALDALHVIRIDHGVHCMEDPVLVERLRLDRIPLTICPLSNVRLNVFGSMREHNLKTMLDAGLCVTINSDDPAYFGGYVNENYLAAAEALNLDRNDIIRLARNSFEASVLSNVQKKLYLQKLDHYVDSFIQ	failed
MTEVALSPRGRSVAYTVRRLSPGQAPAPRARLYVARTSGRDDPRLLFQDEHDIRAPAWHPDGTHLAFVRPVNGTPQVFVIPLNGGVPYRLTDTPHGAQAPQWGPDGERLLFASHVPEPAVRRQTARRPPTERPGRTASDTIRTPPPDTLLVLRHDRTLRPVDTLAVDADGRPQTPTDTTDTLHVPRHSSLSDTLTAPPVRRLAGLSPDSLQAVFDRFRLRSDTTTVAVRPDTAAAPNGTLAQVRRWMHQNRRSGTALVSSRLEIQGERQLRPTPTYRHHYVVDLPAGIRSGRPPRPTPRLLTGGYRSYGQADWLPGGEQVVVSGMPATNESPDRVRRRNLYVADLNTPRLRRLLRIENHTLTSPSVTTDGSTVAFRVESLAPSSDAPAEIGLFALDGRSQPRILTSALDRDVTSVTWAPDGWYLYTTAPSEGGRPLFRFTPFAQDTTDGAPQAPSPTLPTDRATSRNTFTFDSTMVRPAEAEQLTSAARAIHSFDVTDATAVYASTDPTTPSALYANTVSFNNERPLATPNAEWLSRRQVAPPDRMTVSHDSLAVTGWVTRPVAFADSLRHPLFVQARGGPPALSAPYTPEAWFERQYLTGRGLGLVEGFPRGSAGFGTAFRRANDKNWGPGPARDILALADSAAALSWTDSTRVALGGTGYGGTLTAWILGRTNRFAAAVALNGVYDLPALLGGGRAWRLVPAEFGGYPWDGVPPRSLGDPVLSSRLPSPDSTAQTPWTALHRNSPLTYAHRIRTPLLLMQGGADRRVGPSQGERLYKRLKILDRPVEYVRYPEVGHDMSASASPRQRLDRLVRTYEFLARFLEPPAPPTAPQSPPRP	failed
MSYSEIAACLAYAVSVWLAARNNVHTWWIGIIGSILYGWVFWSVQLYADVTLQLFFIATSITGWIHWLKGQGGDILPVRRTQASHFFLLLLCAVVVAGGYGFLLHTFTNAWAPWLDSLILTFSVLAQFMLMGRRIENWFVWLAVNTLAVPLYMTRGLNLTAGLYFLFWINAWHGLYQWRKELQTS	failed
MTINPRDYDLDELRKMARQRGNGMGDEDVPDPTDLDMGLDDADEEVLAGSSFRSGLYRELLPFLSGDAQEKPYLEALPETYAAEFVVFEWLEFLLMHSGYKGADEALDYYRSIDWLTEDVQDDLSDYLLGIDESATNDDNELSVDDHMLSLVYIAKLTAMT	failed
MNTIKLKKNALFNPEGDTDLRHRRMIGGNTTNLNDFNNMRYKWVSDWYRQAMNNFWIPEEINLTQDTKDYPHLDQAERTAYDKILSFLVFLDSLQSNNLPTISEYITANEVNLCLHIQAFQECVHSQSYSYMLDSICSPEKRNEILYQWKTDGHLLKRNTFIGNCYNEFQESQDGFTLMKTLIANYILEGIYFYSGFMFFYNLSRNGKMSGSAQEIRYINRDENTHLWLFRNIILELKKEEPDLFTPDKVKIYEYMMREGVKQEIEWGQYVIGDNIQGLNRKMIEDYIQYLGNLRWSSLGFGPLYEENHKEPESMHWVSQYSNANMVKTDFFEAKSTAYAKSTALEDDL	failed
MATRNALRIVSRRFSSGKVLSEEERAAENVFIKKMEQEKLQKLARQGPGEQAAGSASEAKVAGATASASAESGPKVSEDKNRNYAVVAGVVAIVGSIGWYLKAGGKKQPEVQE	failed
SYASETASTQGLPALELDPEELLAQVQLLRAAVEGSRRESRELVGALERERRLNLEMRQRFERQFAAVSDQLLQLNHLQKESEALLQSLQEQLNEAELQKNAAQRELACVQRQLSLARAEADAGKRVLTTIAEKEALLRKTSQANADLQQIVMHLQAELRNSELQPSTSNASEERLHEAEIPSLADRDAYQTLQQTIEKLSAERDMWYHECARAKEESLRLQQDAERLRGLLDEQQRVHTTTQTLLQDRHLLMRRIIAALAEKYLMEKLPNQHYTQEIDSSPFQARGGTSVQEAHKHERLRRARSF	not failed
MPRWLIQHSPNTLTPEEKSHLAQQITQAYVGFGLPAFYVQVHFIEQPAGTSFIGGEQHPNFVALTIYHLARTMTSDEQRQGFLKRIDAFLTPMFEPKGIDWEYFVTEAPRDLWKINGLAPPAAGSEEEKVWVRENRPVRF	not failed
NSVNCDELGPLPPGWEVRSTVSGRIYFVDHNNRTTQFTDPRLHHIMNHQCQLKEPSQPLPLPS	failed
MKKTLKILAGFVAVVIIIALGIFTSRKLYQNHVDKINHIGKVMDSYKGVKVYYNGKKYAESHGKNYSKDGYYYGYKWQVEYIKRFYYEAKGHSMPNGFGNAKDFFDPKVGQGKLNKDRGLFQYKNGENEKPKADDILVFTDTKYGHVVIVTKVTDDTVEVIQQNMGNKTRDQFKLEYENGKYFVCGKRKPKGWLRKGLEHHHHHH	not failed
GFVCDDFPKPQITVQPETQSAIKGSDVSFTCSAASSSDSPMTFAWKKDNEALQDAEMENYAHLRAQGGELMEYTTILRLRNVEFTSEGKYQCVISNHFGSSYSVKAKLTIN	not failed
MSVLQGFEEVNMTAPRGKLSMLVTKDVVRFNKATAIALGYPAYVKVLINDKTKQFAVKPCKQSDANAVKFSKPEGKQTASVNIKDVMVLDSVLKYFKLDEPQDGQVTFQSMQGTFYPEERVAMFSVADAKAGVMKKRGRKKSESEEA	failed
MLPLEPYLTQTSAVPQMSHFMCHSPTHKPQGLLPWAPFHQASVSLYPISPWPSESVCPPTCPGGASCWFPAGNAWDRVELGFLGFGAGGVSIAVPGFPLSCGQGCCAGGWLGHGARFPAKLRAFPQVIRRGWLTINNISLMKGGSKEYWFVLTAESLSWYKDEEEKEKKYMLPLDNLKIRDVEKGFMSNKHVFAIFNTEQRNVYKDLRQIELACDSQEDVDSWKASFLRAGVYPEKDQAENEDGAQENTFSMDPQLERQVETIRNLVDSYVAIINKSIRDLMPKTIMHLMINNTKAFIHHELLAYLYSSADQSSLMEESADQAQRRDDMLRMYHALKEALNIIGDISTSTVSTPVPPPVDDTWLQSASSHSPTPQRRPVSSIHPPGRPPAVRGPTPGPPLIPVPVGAAASFSAPPIPSRPGPQSVFANSDLFPAPPQIPSRPVRIPPGIPPGVPRRPPAAPSRPTIIRPAEPSLLD	not failed
